Test: yeast display, Sf9 membrane polyspecificity reagent, FACS + sequencing; frameworks hold sequencing errors
Outline: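 Genes from sorted yeast were amplified by colony PCR, read by MiSeq 2 × 250 sequencing and filtered on CDR length. These cells carried a synthetic nanobody library in Saccharomyces cerevisiae BJ5465 and were sorted by FACS into low and high (top ~1%) gates on anti-HA and streptavidin fluorescence. Polyreactivity is labelled according to the gate of origin.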

| Sequence | polyreactivity (PSR sort gate) |
| --- | --- |
| QVQLVESGVGLVQAGGSLSLSCAASGPYYFMGWYRQAPGKESELVAAITRRGGRTYYADSVKGRFTISRDNANITVYLQMNSLKPEDTAVYYCAAKYRYHVSGYDYWGQGTQVTVSS | high polyreactivity |
| QVQLVESGGGLVQAGGSLRLSCAASGFTFFSYTMGWYRQAPGKERELVAAISKRGSRTYYADSVKGRFTISRDNAKNTVYLQRNSLKPEDTAVYYCAADCGREVVLRREDYWGQGTQVTVSS | high polyreactivity |
| QVQLVESGGGLVQAGGSLRLSCAASGLTFRYYTMGWYRQAPGKERELVASITSGGITYYADSVKGRFTISRDNAKNTVYLQMNSLKPEDTAVYYCAKGSYRTTYGALGVKFGYWGQGTKVTVSS | high polyreactivity |
| QVQLQESCGGLVQAGGCLRLSCAASGTIFDPDYMGWYHQAPCKERELVASISLGRITYYADSVKGRFTINRDNAKNTVYLQMNSLKPEDTAVYYCAVRVETIYYYSYWGQGTQVTVRS | high polyreactivity |
| QVQLVESGGGLVQAGGSLRLSCAASGSTFYENAMGWYRQAPGKERELVAAITWSGGRTYYADSVKGRFTISRDNAKNTVYLQMNSLKPEDTAVYYCNARARSRKFYYWGQGTQVTVSS | high polyreactivity |
| QVQLVESGGGLVHAGGSLRLSCAASGRIFDGNTMGWYRQAPGKERELVAAISGGGSTDYADSVKGRFTISRDNAKNTVYLQMNSLKPEDTAVYYCAATTGPVPLKGDYWGQGTQVTVSS | low polyreactivity |
| QVQLVQSGGGFVQAGGSLRVSCAASGRTFGVYAMGWYRQAPGKEREFVAAISYSGGRTYYADSVKGRFTISRDNAKNTVYLQMNSLKPEDTAVYSCNARAFPYYRRFDYWGQGTQVTVSS | high polyreactivity |
| QVHLEDSGGGLVQAGVILRLSSPASGSIFVYNAMGWYRPAPGKERELVAAISSSGGSTYYADSVKGRFTISRDNAKNTVYLQMNSLKPEDTAVYYCAAEAVRKVPSYYSYAYYYWGQGTQVTVSS | high polyreactivity |
| QVQLVESGGGLFQAGGSLRLSCAASGITFHRYDMVWYRQAPGKERELVADITWCGGSTYYADSVKGRFTISRDNAKNTVYLQMNSLKPEDTAVYYCAADASTYTDTPYDYWGQGSQVTVSS | low polyreactivity |
| QVQLVESGGGLVQAGGSLRLSCSASGGTFRYYTMVWYRKAPGKERELVAAITRGGRTYYADSVKGRFTISRDNAKNTVYLQMNSLKPEDTAVYYCAAVRPRSPVSYENDYWGQGTQVTVSS | high polyreactivity |
| QVQLVESGGGLVQAGGSLRLSCAATGITFGRNTMGWYRQAPGKERDLVAAIDSGGNTYADSVKGRFTISRDNAKNTVYLQMNSLKPEDTGVFYSAGDGGELSSYGYWGQGTQVTVSS | low polyreactivity |
| QVQLVESGGGLVQAGGSLRLSCSASGLTLAPNAMGWYRQAPGKERELVAAITRSGGDTYYADSVKGRFTISRDNAKNTVYLQMNSLKPEDTAVYYCAADYWFRYGTYEYWGQGTQVTVSS | high polyreactivity |
| QVQLVESGGGLVQAGGSLRLSSAASGRTFDRNAMGWYRQAPGKERELVAGITRSGDSTYADSVKGRFTISRDNAKITVYLQMNSLKPEDTAVYYCNKEGTVGGTRGYWGQGTQVTVSS | low polyreactivity |
| QVQLVESGGGLVQAGGSLRLSCAASGRIFRYNAMGWYRQAPGKERELVASISSGTSTTYADSVKGRFTISRDYAKNTVYLQMNSLKPEDTAVYYCAAVPSYRGYRGGYSNLWYYYWGQGTQVTVSS | high polyreactivity |
| QVQLVESGGGLVQAGGSLRLSCAASGSTFGVNARGWYRQAPGKERELVAGITWTGGSSYYADSVKGRFTISRDNAKNTVYLQMNSLKPEDTAVYYCAKDWYSSYYDDSEDSWGQGTQVTVSS | low polyreactivity |
| QVQLVESGGGLVQAGGSLRLSCAASGSIFYTYAMGWYRQAPGKERELVAAISWSDTTTYYAVSVKGRFTISRDSAKNTVYLQMNSLKPEDTAVYYFAADAYTNSYWYDYWGQGTQVTLSS | high polyreactivity |
| QVQLVESGGGLVQAGGSLRLSCAASGRTFISYAMGWYRQAPGKESELVAAISSSGGSTYYADSVKGRFTISRDNAKNTVYLQMNSLKPEDTEVYYCNAAKVRRDPAWRLLDYWGQGTQVTVSS | low polyreactivity |
| QVQLVESGGGLVQAGGSLRLSCAASGFTFYYNAMGWYRQAPGKERELVAAISSRGTSTYYADSVKGRFTISRDNAKNTVYLQMNSLKPEDTAVYYCNTDRIGRYYQSYGGGHMDYWGQGTQVTVSS | high polyreactivity |
| QVQLVESGGGLVQAGGSLSLSCAASGTFYGNTMGWYRQAPGKERELVAVISIDGSTNYADSVKGRFTISRDNAKNTVYLQMNCLKPEDTAVYYCNARNQWRTVGKYDYWGQGTQVSVSS | low polyreactivity |
| QVQLVESGGGLVQAGGSLRLSCAASGSTLYRYAMGWYRQAPGKERELVAAITRGSGSTYYADSVKGRFTISRDNAKNTVYLQMNSLKPEDTAVYYCATVKRNHLDGFEYWGQGTQVTVSS | high polyreactivity |
| QVQLVESGGGLVQAGGSLRLSCAASGRTLDVYAMGWYRQAPGKERELVADINWSGGRTYYADSVKGRFTISRDNAKNTVYLQMNSLIPEDTAVFYCAADLSWRQYYREYDYWGQGTQVTVSS | high polyreactivity |
| QDQHGESGGGLVQAGGSLRLSCAASGFIFWSYTMGWYRQAPGKERELVAVITGSGSTYYADSVKGRFTISRDNAKNTVYFQMNSLKPEDTALYYCATEVHVTAWTFEYEYWGQGTQVTVSS | low polyreactivity |

| Sequence | polyreactivity (PSR sort gate) |
| --- | --- |
| QVQLVESGGGLVQAGGSLRLSCAASGSTFNIYGMGWYRQAPGKERELVARISSGGSTYADSVKGRFTISRDNAKNTVYLQMNSLKPEDTAVYYCAAAAARTYRRYRYEGYYYWGQGTQVTVSS | high polyreactivity |
| QVHLVESGGGLVQAGGSLRLSCAASARTFTQNAMVWYRQAPGKERELVAAITRSGGSTYYADSVKGRFTISRDYAKNTVYLQMNSLKPEDTAVYYFIKYTHYYDYDYWGQGTQVTVSS | high polyreactivity |
| QVQLVESGGGLVQAGGSLRLSCAASGRTFFGYAMGWYRQAPGKERELVAAISSGGSTYYADSVKGRFTISRDNAKNTVYLQMNSLKPEDTAVYYCAARSFTTRRSVIRNYWGQGTQVTVSS | high polyreactivity |
| QVQLVDSGGGLVQAGGSLRLSCAASGSILGQNAMGGNRQAPGKERELVAAITRGGSSTYYADSVKGRFTISRDNAKNTVYLQMNSLKPEDTAVYYCAAYSSIGYRQISGYYWGEGTQVTVSS | low polyreactivity |
| QVQLVETGGGLVQAGGSLRLSCAASGIIFATYAMGWYRQAPGKEMELVAAISRRGGYTYYADSVKGRFTISRDNANNTVYLQMNSLKPEDSAVYYCAKSNTLASVAHDYWGQGTQVTVTS | high polyreactivity |
| QDQLVESGGGLVQAGVSLRLICPASGLTFYTYAMGSYRQAPGKERELVAAIRRRGGRTYYADSVKGRFTISRDNAKNTVFLQMNSLKPEDTAVYYCAADYSTLFKYDYWGQGTQVTVSS | low polyreactivity |
| QDQLVESGGRLVQAGGSLRLSCAASGITFSRYAMGWYRQAPGKEWELVAAISCSGARTYYADSVKGRFTISRDNAKNTVYLQMNSLKPEDTAVYYCDRFLRNFKTYDYWGQGTQLTVSS | high polyreactivity |
| QDQLVESGGGLVQAGGSLRLSCAASGLTFTYYAMGWYRQAPGKERELVAAMTWNGGRTYYADSVKGRFTISRDNAKNTVYLLMNSLKPEDTAVYYCNARYILSSSGFGYWRQGTQVTVSS | high polyreactivity |
| QVQLVESGGGLVQAGGSLRLSCPASGRIFYIYTMGWYRQAPGKERELVASITYNGGSTYYADSVKGRFTISRDNAKNTVYLQMNSLKPEDTAVYYCNANSRSPTYRYRSWPYNYWGQGTQVTVSS | high polyreactivity |
| QVQLVESGGGLVQAGCSRRFSCAASGFTFYKNAMGWYRQAPGKERELVAAITSSGGTTYYADSVKGRFTISRDNAKNTVYLQMNSLNPEDTAVYYCAARASRPRFGYWGQGTQVTVSS | high polyreactivity |
| QVQRVESGGGIVQAGGSLRLSCAASRRIFPYYALGWYRQSPGKERELVAAISQSDGSTYYADSVKGRFTISRDNAKNTVYLQMNSLKPEDTAVYYWAKRQASYTKHRKGRGDYWGQGTQVTVSS | low polyreactivity |
| QVQLVESGGGLVQAGGSLRLSCAASGYVMGWYRQAPGKERELVAAITRGTSTYYADSVKGRFTISRDNAKNTVYLQMNSLKPEDTAVYYCAARTPGVSVYKDGYWGQGTQVTVSS | low polyreactivity |
| QVQLVESGGGLVQAGGSLRLSCAASGSTFQGNAMGWYRQAPGKERELVAAISRSGGSTYADSVKGRFTMSRDNAKNTVYLQMNSLKPEDTAVYYCAAYSGVGYLWFDYWGQGTQVTVSS | low polyreactivity |
| QVQLVESGGGLVQAGGSLRLSCAASGFDGYAMGWYRQAPGKERELVAAISWSGSRTYYADSVKGRFTISRDNAKNTVYLQMNSLKPEDTAVYYCAADDVGRGSTPYDYWGQGTQVTVSW | high polyreactivity |
| QVQLVESGGGLVQAGGSLRLSCAASGSIFSRYAMVWYRQAPGKERELVAAISWSGGRTYYADSVKGRFTISRDNAKNTVYLQMNSLKPEDTAVYYCAAPSYTTSWRYDYWGQGTQVTVSS | high polyreactivity |
| QVQLVESGGGLVHAGGSLRLSCPASGRIFPHYAMGWYRQAPGKEREMVAAISGRGGNTYYADSVKGRFTISRDNAKNTVYLQMNSLKPEDTAVYYCAADVSWRPSWGYDYWGQGTQVTVSS | high polyreactivity |
| QVQLVESGGGLVQAGGSLRLSCAASVIIYHYYAMGWYRPAPGKERELVAAIDSGGSTYYADSVKGRFTISRDNAKNTVYLQMNSLKPEDTADYYCNAGPSVTSGYDYDYWGHGTQVTVSS | low polyreactivity |
| QVQLVESGGGLVQAGGSLRLICAASGSTLIWNAMGWYRQAPGKEMELVAVISFSGVSTYYADSVKGRFTISRDNAKNTVYLQMNSLKPEDTAVYYCAAGRYLYNYYGYVDKYGYWGQGTQVTVSS | low polyreactivity |
| QVQLVESGGGLVQAGGSLRLSCAASGFTFTAYAMGWYRQAPGKERELVAAISSGGSTYYADSVKGRFTISRDNAKNTVYLQMNSLKPEDTAVYYCSAVGVYTVKRDYWGQGTQVTVSS | low polyreactivity |
| QVQLVESGGGLVQAGGSLRLSCAASGSSFSYYTMGWYRQAPGKERELVAAITSGGPTNYADSVKGRFTISRDNAKKTVYLQMNSLKPEDTAVYYCAADLYYGWGYYYWGQGTQVTVSS | low polyreactivity |
| QVQLVESGGGLVQAGGSLRLSCAASGSIFDDYAMGWYRQAPGKERELVAAISSSGTSTYYADSVKGRFTISRDNAKNTVYLQMNSLKPEDTAGYYCAARSAILKSGYLMDYWGQGTQVTVSS | low polyreactivity |

From the nanobody polyreactivity screen of Harvey et al. (2022)
